Source: patent publication WO2015087187A1 (dated 2015)

What was measured:
[1] = target: T1, recombinant human SOST (rhSOST) (human, UniProt Q9BQB4 24-213); assay: cell-based or functional assay
T1 sequence: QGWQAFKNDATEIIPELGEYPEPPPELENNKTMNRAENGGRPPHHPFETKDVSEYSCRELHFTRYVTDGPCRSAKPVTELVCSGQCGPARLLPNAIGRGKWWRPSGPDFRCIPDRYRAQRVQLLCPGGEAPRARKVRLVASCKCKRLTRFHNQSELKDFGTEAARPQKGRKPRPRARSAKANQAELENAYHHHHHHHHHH

[2] = target: T1, recombinant human SOST (rhSOST); assay: SPR Biacore T200, IgG captured via anti-human Fc, rhSOST analyte, 37 C

B1: DM4 (antibody, human IgG2, kappa, V domains shown)
VH: EVQLLESGGGLVQPGGSLRLSCAASGHTFSDYWMQWVRQAPGKGLEWVGAIYPGDGDTRYNQKFKDRFTISRDNSKNTLYLQMNSLRAEDTAVYYCARSMDYWGQGTLVTVSS
VL: DIVMTQSPDSLAVSLGERATINCRASKTVDSYGNSFMHWFQQKPGQPPKLLIHHSSNLESGVPDRFSGSGSGTDFTLTISSLQAEDVAVYYCLQTIEFPYTFGQGTKLEIKR
notes: mAb names lost in this copy; also called mH10/mL13
EC50, neutralization of rhSOST-mediated inhibition of Wnt-10B luciferase reporter activity in U-2OS-TF-Wnt10B cells [1]: 2.07 ug/ml (printed 'Mg/ml')
Kd [2]: 0.13 nM
koff [2]: 0.000508 s⁻¹
kon [2]: 3.91e+06 M⁻¹ s⁻¹
